From paper PMC7498317, “GapR binds DNA through dynamic opening of its tetrameric interface” (Nucleic Acids Research, 2020)

What was measured:
GapR [1] = target: T1, GapR (Caulobacter crescentus, UniProt B8H4R9 1-89); assay: ITC; ITC: 50 mM sodium phosphate pH 7.0, 200 mM NaCl, 4 C; 25 uM GapR tetramer in cell, 0.25 mM DNA injected; NMR: 0.1 mM tetramer, 0.02-0.1 mM DNA; conditions: protein: recombinant, tags: C-terminal His6 (pET-21a), chain copies: 4, blunt
T1 sequence: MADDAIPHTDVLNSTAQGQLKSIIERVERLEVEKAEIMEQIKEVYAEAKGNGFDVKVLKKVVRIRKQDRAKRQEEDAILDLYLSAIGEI

GapR G87A = target: T2, GapR G87A (Caulobacter crescentus, UniProt B8H4R9 1-89, G87A); assay: NMR (1H-15N HSQC titration); minor peaks disappear on DNA addition; ITC: 50 mM sodium phosphate pH 7.0, 200 mM NaCl, 4 C; 25 uM GapR tetramer in cell, 0.25 mM DNA injected; NMR: 0.1 mM tetramer, 0.02-0.1 mM DNA; conditions: protein: recombinant; tags: C-terminal His6 (pET-21a); chain copies: 4; blunt
T2 sequence: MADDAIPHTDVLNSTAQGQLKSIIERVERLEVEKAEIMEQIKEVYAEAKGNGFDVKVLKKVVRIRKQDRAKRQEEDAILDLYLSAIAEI

GapR [2] = target: T1, GapR; assay: ITC; netropsin-bound DNA; ITC: 50 mM sodium phosphate pH 7.0, 200 mM NaCl, 4 C; 25 uM GapR tetramer in cell, 0.25 mM DNA injected; NMR: 0.1 mM tetramer, 0.02-0.1 mM DNA; conditions: protein: recombinant; tags: C-terminal His6 (pET-21a); chain copies: 4; blunt
[3] = target: the molecule itself; assay: SEC-MALS; Superdex-75 HR 10/30, 50 mM sodium phosphate pH 7.0, 150 mM NaCl, 25°C; free GapR 0.5, 1.0 and 2.0 mg/mL, GapR^ΔC17 2.0 mg/ml; self-association
[4] = target: the molecule itself; assay: cross-linking; 0.1 mM protein, EGS 0.5 and 1 mM, 50 mM sodium phosphate, 150 mM NaCl, pH 7.2, room temperature, 10 min; self-association
[5] = target: the molecule itself; assay: SEC; Superdex 75, 50 mM sodium phosphate pH 7.0, 150 mM NaCl; apparent molecular weight from the elution volume; self-association

B1: 10A (dsDNA)
DNA 1: CCGAAAAAAAAAACGC
DNA 2: GCGTTTTTTTTTTCGG
GapR [1]
  Kd: 0.0116 ± 0.0025 µM
GapR G87A
  binding result: binds

B2: 5ApT (dsDNA)
DNA 1: CCGATATATATATCGC
DNA 2: GCGATATATATATCGG
GapR [1]
  Kd: 0.0123 ± 0.0089 µM
GapR [2]
  Kd: 0.0166 ± 0.0045 µM

B3: GapR^ΔC17 (residues 1-72) (domain or fragment, C. crescentus, UniProt B8H4R9 1-72, looked up)
chain: MADDAIPHTDVLNSTAQGQLKSIIERVERLEVEKAEIMEQIKEVYAEAKGNGFDVKVLKKVVRIRKQDRAKR
notes: GapR of Caulobacter crescentus, gene CCNA_03428, residues 1-72; theoretical dimer mass 18.6 kDa as printed; also called C-terminal truncation mutant; source: E. coli Rosetta (DE3), purified (Ni-NTA, size-exclusion chromatography)
[3]
  stoichiometry N: 2

B4: seq1 (dsDNA)
DNA 1: GCGAAATTGATCG
DNA 2: CGATCAATTTCGC
GapR [1]
  Kd: 0.072 ± 0.024 µM

B5: 11AT (dsDNA)
DNA 1: TTAAAATTAAA
DNA 2: TTTAATTTTAA
GapR [1]
  Kd: 0.0123 ± 0.0045 µM

B6: 6CpG (dsDNA)
DNA 1: CGCGCGCGCGCG
DNA 2: CGCGCGCGCGCG
GapR [1]; self-complementary
  Kd: 0.118 ± 0.017 µM

B7: GapR (growth-associated A/T-binding protein involved in regulation), full length, residues 1-89 (natural protein, C. crescentus, UniProt B8H4R9 1-89, looked up)
chain: MADDAIPHTDVLNSTAQGQLKSIIERVERLEVEKAEIMEQIKEVYAEAKGNGFDVKVLKKVVRIRKQDRAKRQEEDAILDLYLSAIGEI
notes: GapR of Caulobacter crescentus, gene CCNA_03428, residues 1-89 (full length); theoretical monomer mass 11.2 kDa as printed; A selenomethionyl derivative was used for MAD phasing of the GapR/10A complex structure; 15N- or 13C-labelled for NMR; also called free GapR; full-length GapR; source: E. coli Rosetta (DE3), purified (Ni-NTA, size-exclusion chromatography on Superdex 75)
[4]
  stoichiometry N: 4

B8: seq2 (dsDNA)
DNA 1: CGTGTTTTCGG
DNA 2: CCGAAAACACG
GapR [1]
  Kd: 0.072 ± 0.019 µM

B9: GapR^ΔC8 (residues 1-81) (domain or fragment, C. crescentus, UniProt B8H4R9 1-81, looked up)
chain: MADDAIPHTDVLNSTAQGQLKSIIERVERLEVEKAEIMEQIKEVYAEAKGNGFDVKVLKKVVRIRKQDRAKRQEEDAILDL
notes: GapR of Caulobacter crescentus, gene CCNA_03428, residues 1-81; also called C-terminal truncation mutant; source: E. coli Rosetta (DE3), purified (Ni-NTA, size-exclusion chromatography)
[5]
  stoichiometry N: 2

B10: GapR^ΔN10 (residues 11-89) (domain or fragment, C. crescentus, UniProt B8H4R9 11-89, looked up)
chain: VLNSTAQGQLKSIIERVERLEVEKAEIMEQIKEVYAEAKGNGFDVKVLKKVVRIRKQDRAKRQEEDAILDLYLSAIGEI
notes: GapR of Caulobacter crescentus, gene CCNA_03428, residues 11-89; pET-28a(+) with a thrombin-cleavable N-terminal His6-tag; the tag was removed by thrombin; also called N-terminal truncation mutant; source: E. coli Rosetta (DE3), purified (Ni-NTA, thrombin cleavage, size-exclusion chromatography); not shown: His6, N-terminal, cleaved
[5]
  binding result: binds
